B1: TMEM192 (parent)
chain: LWILHLLLECYIQYHHSKIRNRGY

Variants of: B1
Assay: protein stability index of a GFP-peptide fusion (GPS, HEK-293T) (PSI 1-6); higher = more stable
Conditions: c terminus: a fixed tail appended
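Further: lentivirally expressed fusions sorted by FACS into six bins by GFP to DsRed ratio, PSI derived from sequencing read proportions per bin multiplied by bin number.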

| Variant | protein stability index |
| --- | --- |
| LWILELLLECYIQYHHSKIRNRGY [H5E] | 2.26 |
| LWILGLLLECYIQYHHSKIRNRGY [H5G] | 1.48 |
| LWILILLLECYIQYHHSKIRNRGY [H5I] | 2.77 |
| LWILKLLLECYIQYHHSKIRNRGY [H5K] | 2.35 |
| LWILLLLLECYIQYHHSKIRNRGY [H5L] | 2.28 |
| LWILPLLLECYIQYHHSKIRNRGY [H5P] | 3.17 |
| LWILQLLLECYIQYHHSKIRNRGY [H5Q] | 1.72 |
| LWILTLLLECYIQYHHSKIRNRGY [H5T] | 2.61 |
| LWILVLLLECYIQYHHSKIRNRGY [H5V] | 2.22 |
| LWILHALLECYIQYHHSKIRNRGY [L6A] | 2.43 |
| LWILHCLLECYIQYHHSKIRNRGY [L6C] | 1.67 |
| LWILHDLLECYIQYHHSKIRNRGY [L6D] | 1.87 |
| LWILHELLECYIQYHHSKIRNRGY [L6E] | 2.09 |
| LWILHGLLECYIQYHHSKIRNRGY [L6G] | 1.69 |
| LWILHHLLECYIQYHHSKIRNRGY [L6H] | 2.37 |
| LWILHILLECYIQYHHSKIRNRGY [L6I] | 1.65 |
| LWILHKLLECYIQYHHSKIRNRGY [L6K] | 2 |
| LWILHMLLECYIQYHHSKIRNRGY [L6M] | 1.65 |
| LWILHNLLECYIQYHHSKIRNRGY [L6N] | 1.97 |
| LWILHPLLECYIQYHHSKIRNRGY [L6P] | 1.97 |
| LWILHQLLECYIQYHHSKIRNRGY [L6Q] | 1.99 |
| LWILHRLLECYIQYHHSKIRNRGY [L6R] | 1.73 |
| LWILHSLLECYIQYHHSKIRNRGY [L6S] | 1.62 |
| LWILHTLLECYIQYHHSKIRNRGY [L6T] | 2.81 |

| Variant | protein stability index |
| --- | --- |
| LWILHYLLECYIQYHHSKIRNRGY [L6Y] | 1.8 |
| LWILHLALECYIQYHHSKIRNRGY [L7A] | 3.25 |
| LWILHLCLECYIQYHHSKIRNRGY [L7C] | 2.32 |
| LWILHLDLECYIQYHHSKIRNRGY [L7D] | 3.52 |
| LWILHLELECYIQYHHSKIRNRGY [L7E] | 2.73 |
| LWILHLFLECYIQYHHSKIRNRGY [L7F] | 1.88 |
| LWILHLHLECYIQYHHSKIRNRGY [L7H] | 2.78 |
| LWILHLILECYIQYHHSKIRNRGY [L7I] | 3.46 |
| LWILHLMLECYIQYHHSKIRNRGY [L7M] | 2.51 |
| LWILHLNLECYIQYHHSKIRNRGY [L7N] | 2 |
| LWILHLPLECYIQYHHSKIRNRGY [L7P] | 2.33 |
| LWILHLQLECYIQYHHSKIRNRGY [L7Q] | 2.34 |
| LWILHLRLECYIQYHHSKIRNRGY [L7R] | 1.89 |
| LWILHLTLECYIQYHHSKIRNRGY [L7T] | 3.78 |
| LWILHLVLECYIQYHHSKIRNRGY [L7V] | 3.56 |
| LWILHLYLECYIQYHHSKIRNRGY [L7Y] | 2.48 |
| LWILHLLDECYIQYHHSKIRNRGY [L8D] | 4.78 |
| LWILHLLFECYIQYHHSKIRNRGY [L8F] | 2.57 |
| LWILHLLHECYIQYHHSKIRNRGY [L8H] | 3.75 |
| LWILHLLIECYIQYHHSKIRNRGY [L8I] | 3.28 |
| LWILHLLKECYIQYHHSKIRNRGY [L8K] | 2.54 |
| LWILHLLMECYIQYHHSKIRNRGY [L8M] | 2.01 |
| LWILHLLPECYIQYHHSKIRNRGY [L8P] | 2.11 |
| LWILHLLRECYIQYHHSKIRNRGY [L8R] | 2.96 |

| Variant | protein stability index |
| --- | --- |
| LWILHLLSECYIQYHHSKIRNRGY [L8S] | 4.08 |
| LWILHLLTECYIQYHHSKIRNRGY [L8T] | 2.86 |
| LWILHLLWECYIQYHHSKIRNRGY [L8W] | 2.98 |
| LWILHLLYECYIQYHHSKIRNRGY [L8Y] | 2.71 |
| LWILHLLLCCYIQYHHSKIRNRGY [E9C] | 3.27 |
| LWILHLLLDCYIQYHHSKIRNRGY [E9D] | 1.94 |
| LWILHLLLFCYIQYHHSKIRNRGY [E9F] | 3.6 |
| LWILHLLLGCYIQYHHSKIRNRGY [E9G] | 2 |
| LWILHLLLHCYIQYHHSKIRNRGY [E9H] | 1.47 |
| LWILHLLLICYIQYHHSKIRNRGY [E9I] | 2.56 |
| LWILHLLLKCYIQYHHSKIRNRGY [E9K] | 3.05 |
| LWILHLLLLCYIQYHHSKIRNRGY [E9L] | 1.7 |
| LWILHLLLMCYIQYHHSKIRNRGY [E9M] | 2.33 |
| LWILHLLLNCYIQYHHSKIRNRGY [E9N] | 1.44 |
| LWILHLLLPCYIQYHHSKIRNRGY [E9P] | 3.73 |
| LWILHLLLQCYIQYHHSKIRNRGY [E9Q] | 2.48 |
| LWILHLLLRCYIQYHHSKIRNRGY [E9R] | 2.99 |
| LWILHLLLSCYIQYHHSKIRNRGY [E9S] | 2.28 |
| LWILHLLLTCYIQYHHSKIRNRGY [E9T] | 1.96 |
| LWILHLLLVCYIQYHHSKIRNRGY [E9V] | 3.35 |
| LWILHLLLWCYIQYHHSKIRNRGY [E9W] | 3.27 |
| LWILHLLLEAYIQYHHSKIRNRGY [C10A] | 2.09 |
| LWILHLLLEDYIQYHHSKIRNRGY [C10D] | 2.63 |
| LWILHLLLEEYIQYHHSKIRNRGY [C10E] | 1.94 |

| Variant | protein stability index |
| --- | --- |
| LWILHLLLEFYIQYHHSKIRNRGY [C10F] | 2.53 |
| LWILHLLLEGYIQYHHSKIRNRGY [C10G] | 1.18 |
| LWILHLLLEHYIQYHHSKIRNRGY [C10H] | 1.98 |
| LWILHLLLEKYIQYHHSKIRNRGY [C10K] | 1.72 |
| LWILHLLLELYIQYHHSKIRNRGY [C10L] | 4.54 |
| LWILHLLLENYIQYHHSKIRNRGY [C10N] | 1.79 |
| LWILHLLLEPYIQYHHSKIRNRGY [C10P] | 2.22 |
| LWILHLLLEQYIQYHHSKIRNRGY [C10Q] | 1.95 |
| LWILHLLLERYIQYHHSKIRNRGY [C10R] | 2.03 |
| LWILHLLLESYIQYHHSKIRNRGY [C10S] | 1.72 |
| LWILHLLLEWYIQYHHSKIRNRGY [C10W] | 1.4 |
| LWILHLLLEYYIQYHHSKIRNRGY [C10Y] | 2.2 |
| LWILHLLLECAIQYHHSKIRNRGY [Y11A] | 2.47 |
| LWILHLLLECDIQYHHSKIRNRGY [Y11D] | 1.25 |
| LWILHLLLECEIQYHHSKIRNRGY [Y11E] | 3.19 |
| LWILHLLLECFIQYHHSKIRNRGY [Y11F] | 3.94 |
| LWILHLLLECGIQYHHSKIRNRGY [Y11G] | 3.4 |
| LWILHLLLECHIQYHHSKIRNRGY [Y11H] | 1.77 |
| LWILHLLLECIIQYHHSKIRNRGY [Y11I] | 2.47 |
| LWILHLLLECKIQYHHSKIRNRGY [Y11K] | 1.93 |
| LWILHLLLECMIQYHHSKIRNRGY [Y11M] | 2.48 |
| LWILHLLLECNIQYHHSKIRNRGY [Y11N] | 3.81 |
